# According to the nanobody polyreactivity screen of Harvey et al. (2022):
# Experiment: yeast display, Sf9 membrane polyspecificity reagent, FACS + sequencing; frameworks hold sequencing errors
# How it was run: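 Using colony PCR, genes from sorted yeast display clones were amplified, then sequenced on MiSeq at 2 × 250 and filtered by CDR length. The clones had been stained with 10% biotinylated, detergent-solubilized Sf9 membrane reagent for 1 hour at 4 °C and sorted by FACS into low and high (top ~1%) gates on anti-HA and streptavidin fluorescence. Polyreactivity labels come from the gate of origin.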
row,Sequence,polyreactivity (PSR sort gate)
1,QVQLVESGGGLVQAGGSLRLSCAASGIIFHLYTMGWYRQAPGKERELVAAISNNGGRTYYADSVKGRFTISRDNAKNTVYLQMNSLKPEDTAVYYCAKYLSPGERHSYDYWGQGTQVTVSS,high polyreactivity
2,QVQLVESGGGLVQAGGSLRLSCAASGIIFINYVMGWYRQAPGKESELVAAITGSGSSTYYADSVKGRFTISRDNAKNTVYLQMNSLKPEDTAVYYCAADNPRVRFLYYYWGQGTQVTVSS,high polyreactivity
3,QVQLVESGGGLVQAGGSLRLSCAASGIIFISYVMGWYRQAPGKERELVAAITRSGDSTYYADSVKGRFTISRDNAKNTVYVQMNSLKPEDTAVYYCAAEHAYSYWDYDYWGQGTQVTVSS,high polyreactivity
4,QVQLVESGGGLVQAGGSLRLSCAASGIIFKLYAMGWYRQAPGKEREFVATITKTGGRTYYEDSVKGRFTISRDNAKNTVYLQMNSLKPEDTAVYYCAARRVNGKMYYWGQGTQVTVSS,high polyreactivity
5,QVQLVESGGGLVQAGGSLRLSCAASGIIFKRYAMGWYRQAPGKDRELVAAISSRAGRTYYADSVKGRFTISRDNAKNNVYLQLNSLKPEDTAVYYCNTGLVYGYDYWGQGTQVTVSS,high polyreactivity
6,QVQLVESGGGLVQAGGSLRLSCAASGIIFKSNAMGWSRQAPGKERELVAAIRSSGSTNYADSVKGRFTISRDNAKNTVYLQLNSLKPEDTAVYYCAVSSWSVWGHYYWGQGTQVTVSS,high polyreactivity
7,QVQLVESGGGLVQAGGSLRLSCAASGIIFKYNAMGWSRQAPGKERELVAAITSGGSTYYADSVKGRFTISRDNAKNTVYLQRNSLKPEDTAVYYCAARYTYVKNFFRRLTAYYYWGQGTQVTVSS,high polyreactivity
8,QVQLVESGGGLVQAGGSLRLSCAASGIIFKYNVMGWYTQAPGKERELVAAITDSGTSTFYADSVKGRFTISRDNAKNTVSLQMNSLKPEDTAFYYCAADEFSVFTIETYGYDYWGQGTQVTVSS,low polyreactivity
9,QVQLVESGGGLVQAGGSLRLSCAASGIIFLWYAMGWYRQAPGKERELVAAISRTGSSTYYADSVKGRFTISRDNAKNTVYFQMNSLKPEDTAVYYCAAAYYSKRSWRFDYWGQGTQVTVSS,high polyreactivity
10,QVQLVESGGGLVQAGGSLRLSCAASGIIFNDYAMGWYRQAPGKERELVATISWSGGSTYADSVKGRFTISRDNAKNTVYLQMNSLKPEDTAVYYCAAVPRRSYGGYPYYYWGQGTQVTVSS,low polyreactivity
11,QVQLVESGGGLVQAGGSLRLSCAASGIIFNGYAMGWYRQAPGKERELVAAISSSGGRTYYADSVKGRFTISRDNAKNTVYLQMNSLKPEDTAVYYCAADAAGSRVYPYDYWGQGTQVTVSS,high polyreactivity
12,QVQLVESGGGLVQAGGSLRLSCAASGIIFPFYAMGWYRKAPGKERELVAAITSDGNTNYADSVKGRFTISRDNAKNTVYLQMNSLKPEDTAVYYCNAETQYGVLSWHSTRHEYWGQGTQVTVSS,low polyreactivity
13,QVQLVESGGGLVQAGGSLRLSCAASGIIFPFYAMGWYRQAPGKERELVAAITSGGDTYYADSVKGRFTISRDNAKNTVYLQMNSLKPEDTAVYYCAAVYRRQYGYWGQGTQVTVSS,high polyreactivity
14,QVQLVESGGGLVQAGGSLRLSCAASGIIFPPYTMGWYRQAPGKERELVAAINTRGSRTYYADSVKGRFTISRDNAKNTVYLQMNSLKPEDTAVYYCAADVWWSTTYDYWGQGTQVTVSS,high polyreactivity
15,QVQLVESGGGLVQAGGSLRLSCAASGIIFPRYALGWYRQAPGKERELVAAITIGGRTNYADSVKGRFTISRDNAKNTVYLQMNSLKPEDPAVYYGAAQTYVPYYEYDYWGQGTQVTVSS,low polyreactivity
16,QVQLVESGGGLVQAGGSLRLSCAASGIIFPSYVMGWYRQAPGKERELVAAISSRGTSTYYADSVKGRFTISRDHAKNTVYLQMNSLKPEDTAVYYCAAKSFGTTTRSEYDYWGQGTQVTVSS,high polyreactivity
17,QVQLVESGGGLVQAGGSLRLSCAASGIIFPTYAMGWYRQAPGKERELVAAISVSGGTTSYADSVKGRFTISRDNAKNTVYLQMNSLKPEDTAVYYCAKRPFSTRYDYWGQGTQVTVSS,high polyreactivity
18,QVQLVESGGGLVQAGGSLRLSCAASGIIFPVYAMGWYRQAPGKERELVAAISNRAGSTYYADSVKGRFTISRDNAKNSVYLQMNSLKPEDTAVYYCAAASRRSGASSWYDYWGQGTQVTVSS,high polyreactivity
19,QVQLVESGGGLVQAGGSLRLSCAASGIIFPWYAMGWYRPAPGKERELVAAISGSGGSTYYADSVKGRFTISRDNAKNTVYLQMNSLKPEDTAVYYCAAYPRGSQRYNYGGQGTQVTVSS,high polyreactivity
20,QVQLVESGGGLVQAGGSLRLSCAASGIIFPYNAMGWYRQAPGKERELVAAITGGGSTYYADSVKGRFTISRDNAKNTVYLQMNSLKPEDTAVYYCAADRSGPGYDYWGQGTQVTVSS,low polyreactivity
21,QVQLVESGGGLVQAGGSLRLSCAASGIIFPYYAMGWYREAPGIERELVAGLDSSGSSTNYADSVKGRFTISRDTAKTTVYLQITSLQPEDTAVYYCAKVTSSGDAVLTQIPYGYDYWGQGTQVTVSS,low polyreactivity
22,QVQLVESGGGLVQAGGSLRLSCAASGIIFPYYSMGWYRQAPGKERELVAAITSSGGSTYYADSVKGRFTISRDNAKNTVYLQMNSLKPEDTAVYYCAAQTWGHGGDSWGQGTQVTVSS,high polyreactivity

row,Sequence,polyreactivity (PSR sort gate)
1,QVQLVESGGGLVQAGGSLRLSCAASGIIFQAYAKGWYRQAPGKERELVAAISYSGGSTYYAESVKGRFTISRDNAKNNVDLQMNRLKPEVTAVYYCAAELYRYWFDMYYWGQGTQVTVSS,low polyreactivity
2,QVQLVESGGGLVQAGGSLRLSCAASGIIFQPYAMGWYRQAPGKERELVAAITYSGDGTFYADSVKGRFTISRDNAKNTVYLQMNSLKPEDTAVYYCAAYPRDPYKEYDYWGQGTQVTVSS,low polyreactivity
3,QVQLVESGGGLVQAGGSLRLSCAASGIIFQRNDMGWYRQAHGKERELVANIRDGGITYADSVKGRFTISRDNAKNTVYLKMNSLKPEDTAVYYCARDDTSPGYGDQSSNASNYYWGQGTQVTVSS,low polyreactivity
4,QVQLVESGGGLVQAGGSLRLSCAASGIIFQRNDMGWYRQAPGKERELDANIRDGGITYADSVKGRFTISRDNAKNTVYLQMNSLKPEDTAVYYCARYDTSPGYGDQSSNAAYYYWGQVTQVTVSS,low polyreactivity
5,QVQLVESGGGLVQAGGSLRLSCAASGIIFRGNALGWYRPAPGKERELVAAISRSGRTNYADSVKGRFTISRDNAKNTVYLQMNSLKPEDNAVYYCAVDKRYGRVVGRDYDYWGQGTQVTVSS,high polyreactivity
6,QVQLVESGGGLVQAGGSLRLSCAASGIIFRGYAMGWYRQAPGKERELVAAISKSGGSTYYADSVKGRFTISRDNAKNTVYLQMNSLKPEDTAVYYCAADVYKQYGYYYWGQGTQVTVSS,high polyreactivity
7,QVQLVESGGGLVQAGGSLRLSCAASGIIFRGYAMRWYRQAPGKVREVVAVITSGGGTYYADSVKGRFTISRDNAKNNVYLQMNSLKPEETAVYYCNAASSLPGYDYWGQGTQVTVSS,high polyreactivity
8,QVQLVESGGGLVQAGGSLRLSCAASGIIFRLNAMGWYRQAPGKERELGAAIRRRGGSTYYADSVKGRFTISRDNAKNTVYLQMNSLKPEDTAVYYCAADAPWAYYEYDYWGQGTQVTVSS,low polyreactivity
9,QVQLVESGGGLVQAGGSLRLSCAASGIIFRLNAMGWYRQAPGKERELVAAMRRRGGSTYYADSVKGRFTISRDNAKNTVYLQMNSLKPEDTAVYYCAKDPVTTFYKYDYWGQGTQVTVSS,low polyreactivity
10,QVQLVESGGGLVQAGGSLRLSCAASGIIFRLNAMGWYRQAPGKVRELVAAIRRRGGSTYYADSVKGRFTISRDNAKNTVYLQMNSLKPEDTAVYYCAKDPHGSDFGYWGQGTQVTVSS,low polyreactivity
11,QVQLVESGGGLVQAGGSLRLSCAASGIIFRNYAMGWYRQAPGKEREFVAAISYRGGTTYYADSVKGRFTISRDNAKNTVYLQMNSLKPEDTAVYYCAAPYYLQQSRYYYWGQGTQVTVSS,high polyreactivity
12,QVQLVESGGGLVQAGGSLRLSCAASGIIFRNYAMGWYRQAPGKERELVAAISSNGGSTYYADSVKGRFTISRDNAKNTVYLQMNSLKPEDTAVYYCAARHSLYGYWGQGTQVTVSS,high polyreactivity
13,QVQLVESGGGLVQAGGSLRLSCAASGIIFRPYAMGWYRQAPGKERELVAAITWSGTSTYYADSVKGRFTISRDNAKNTVYLQMNSLKPEDTAVYYCAARNVFQSVHLRGGYWGQGTQVTVSS,high polyreactivity
14,QVQLVESGGGLVQAGGSLRLSCAASGIIFRRYAMGWYRPEPGLVRELVAAISASGVRTYYADSVKGRFTISRDNAKNTVYFQMNSLKPEDTAVYYCAAATKRVEYEYWGQGTQVTVSS,high polyreactivity
15,QVQLVESGGGLVQAGGSLRLSCAASGIIFRRYAMGWYRQAPGKEREFVAAIRYTGGGTYYADSVKGRFTISRDNAKNTVYLQMNSLKPEDTAVYYCAARDRDTRNYYWGQGTQVTVSS,high polyreactivity
16,QVQLVESGGGLVQAGGSLRLSCAASGIIFRSYAMGWYRQAPGKERELVAGITRVGSTYYADSVKGRFTISRDNAKNTVYLQMHSLKPEDTAVYYCNAYNYWSDDYWGQGTQVTVSS,high polyreactivity
17,QVQLVESGGGLVQAGGSLRLSCAASGIIFRSYTMGWYRQAPGKERELVASITRSGGITYYADSVKGRFTISRDNAKNTVYLQMNSLKPEDTAVYYCSARHRYYSYSGYDYWGQGTQVTVSS,high polyreactivity
18,QVQLVESGGGLVQAGGSLRLSCAASGIIFRTNAMGWYRKAPGKEREFVAAISAGGTRTYYADSVKGRFTISRDNAKNTVYLQMNSLKPEDTAVYYCAAASGYDYWGQGTQVTVSS,high polyreactivity
19,QVQLVESGGGLVQAGGSLRLSCAASGIIFRYNTMGWYRQAPGKERELVAAITRSGGSTYYADSVKGRFTISRDNAKNTVYLQMNSLKPEDTAVYYCAAQGYSYRHTAFEYWGQGTQVTVSS,high polyreactivity
20,QVQLVESGGGLVQAGGSLRLSCAASGIIFRYYAMGWYRQAPGKERELVARITSRAGRTYYADSVKGRFTISRDYAKYTVYLQMNSLKPEDTAVYYCAARLYGRYGYWGQGTQVTVSS,high polyreactivity
21,QVQLVESGGGLVQAGGSLRLSCAASGIIFRYYTMGWYRQAPGTERELVAAITSGGSTNYADSVKGRFTISRDNAKNTVYLQMNSLKPEDTAVYYCRQFSVWGYDYWGQGTQVTVSS,high polyreactivity
